From US20230143091A1 (SORRISO PHARMACEUTICALS, published 2023)
Changes are numbered by the printed parent chain. Numbers in names are those of the source.

T1: IL-7R (as used in the IL-7/IL-7R neutralisation ELISA) (UniProt P16871 21-239, limits assumed)
T1 sequence (looked up): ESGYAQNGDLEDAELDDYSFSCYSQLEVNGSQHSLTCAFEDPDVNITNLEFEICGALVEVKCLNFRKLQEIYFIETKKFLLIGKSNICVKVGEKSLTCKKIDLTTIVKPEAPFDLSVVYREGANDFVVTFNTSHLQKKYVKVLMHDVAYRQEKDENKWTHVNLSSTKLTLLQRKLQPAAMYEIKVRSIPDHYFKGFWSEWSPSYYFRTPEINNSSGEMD

T2: IL-7R on human lymphocytes (hPBMCs) (human, UniProt P16871 21-459)
T2 sequence (looked up): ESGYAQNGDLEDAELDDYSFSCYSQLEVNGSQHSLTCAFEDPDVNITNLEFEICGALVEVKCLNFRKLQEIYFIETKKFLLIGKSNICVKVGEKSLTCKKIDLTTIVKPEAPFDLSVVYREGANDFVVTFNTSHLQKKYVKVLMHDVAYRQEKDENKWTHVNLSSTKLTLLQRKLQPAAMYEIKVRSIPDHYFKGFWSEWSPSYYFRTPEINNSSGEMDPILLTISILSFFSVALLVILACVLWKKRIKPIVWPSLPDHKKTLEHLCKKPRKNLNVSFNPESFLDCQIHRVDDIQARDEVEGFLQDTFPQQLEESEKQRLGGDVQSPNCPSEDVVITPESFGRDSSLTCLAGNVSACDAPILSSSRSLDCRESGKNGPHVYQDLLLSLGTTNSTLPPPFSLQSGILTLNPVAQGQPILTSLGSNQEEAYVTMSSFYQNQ

B1: FU3K bihead (bispecific antibody)
chain: DVQLVESGGGLVQPGGSLKLSCAASGFDFSSHWMYWVRQAPGKELEWLSEINTNGLITHYGDSVKGRFTVSRNNAANKMYLELTRLEPEDTALYYCARNQHGLNKGQGTQVTVSSGGGGSGGGGSKGGGGSGGGGSEVQLVESGGGLVQAGGSLRLSCESSISTFSSDAMGWFRQAPGKELEFLAAIGWSGAVTHYSDSVKGRFTISRDNAKNTVYLQMNSLRAEDTGRYYCAEDYDTDVWQYWGQGTQVTVSS
notes: Produced in S. cerevisiae; also called pre-digestion FU3K; heterobihead
B2: ID-38F (VHH)
VHH: DVQLVESGGGLVQPGGSLKLSCAASGFDFSSHWMYWVRQAPGKELEWLSEINTNGLITHYGDSVKGRFTVSRNNAANKMYLELTRLEPEDTALYYCARNQHGLNKGQGTQVTVSS
B3: FU3K after trypsin digestion (other)
VHH 1: DVQLVESGGGLVQPGGSLKLSCAASGFDFSSHWMYWVRQAPGKELEWLSEINTNGLITHYGDSVKGRFTVSRNNAANKMYLELTRLEPEDTALYYCARNQHGLNKGQGTQVTVSSGGGGSGGGGSK
VHH 2: GGGGSGGGGSEVQLVESGGGLVQAGGSLRLSCESSISTFSSDAMGWFRQAPGKELEFLAAIGWSGAVTHYSDSVKGRFTISRDNAKNTVYLQMNSLRAEDTGRYYCAEDYDTDVWQYWGQGTQVTVSS
notes: A mixture of two separate monomers, not a complex; also called post-digestion FU3K; ID-38F and ID-A62U monomer arms released from FU3K
B4: V7R-2E9 (VHH)
VHH: EVQLVESGGGLVQAGGSLRLSCESSISTFSSDAMGWFRQAPGKEREFLAAIGWSGAVTHYSDSVQGRFTISRDNAKNTVYLQMNSLKSEDTGRYYCAEDYDTDVWQYWGQGTQVTVSS
B5: ID-A62U (VHH)
VHH: B4 VHH with E1D, R45L, Q65K, K87R, S88A
notes: Produced in S. cerevisiae; Comprises E1D and R45L mutations relative to ID-A40U

How the values were obtained:
[1] = target: T1, IL-7R (as used in the IL-7/IL-7R …); assay: IL-7/IL-7R neutralisation ELISA; blocked ligand IL-7, bound IL-7 detected with biotinylated anti-hIL-7 and Extravidin-HRP
human TNFα = target: T3, human TNFα (human, UniProt P01375 77-233); assay: competition ELISA on plate-coated human TNFα; competitor 2 nM biotinylated adalimumab, detected with ExtrAvidin-HRP
T3 construct: also called TNF-alpha; Tumour necrosis factor-alpha
T3 sequence (P01375 77-233 limits assumed): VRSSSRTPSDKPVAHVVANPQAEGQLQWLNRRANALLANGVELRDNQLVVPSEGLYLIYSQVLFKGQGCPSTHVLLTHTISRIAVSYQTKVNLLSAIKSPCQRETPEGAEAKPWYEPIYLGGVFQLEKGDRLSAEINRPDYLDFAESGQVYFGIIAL
Description: ELISA plates were coated with 100 ng/mL human TNFα in 250 μg/mL bovine serum albumin (BSA) in phosphate buffered saline (1×PBS) and blocked with 1% BSA in 1×PBS.

[2] = target: T2, IL-7R on human lymphocytes (hPBMCs); assay: cell-based or functional assay

| Binder | IC50 (read off the curve) [1] | other results |
| --- | --- | --- |
| B1 | ~0.2 nM |  |
| B2 |  | binding result (human TNFα): binds |
| B3 | ~0.4 nM |  |
| B4 |  | IL-7 induced pSTAT5 in hPBMCs EC50 nM [2]: 2.86 nM |
| B5 | 0.1 to 0.2 nM |  |
